According to publication PMC10575957:

What was measured:
Experiment in all cases: cryo-EM structure; portal-tail complex of the native P-SCSP1u virion, symmetry-mismatch reconstruction, C6 symmetry, 3.8 Å; virions in SM buffer
[1] = target: P-SCSP1u portal protein (gp16) (cyanophage P-SCSP1u)
[2] = target: P-SCSP1u nozzle protein (gp23) (cyanophage P-SCSP1u)
[3] = target: P-SCSP1u fiber protein (gp28) (cyanophage P-SCSP1u)
[4] = target: P-SCSP1u adaptor protein (gp22) (cyanophage P-SCSP1u)

For “P-SCSP1u portal protein (gp16) (natural protein)”, the stoichiometry N [1] was 12.
Substance “P-SCSP1u nozzle protein (gp23) (natural protein)” has a stoichiometry N [2] of 6.
“P-SCSP1u fiber protein (gp28) (natural protein)” showed a stoichiometry N [3] of 3.
“P-SCSP1u adaptor protein (gp22) (natural protein)” gave a stoichiometry N [4] of 12.
